Laboratory results as given in article PMC5446404.

Biological target: recombinant human fortilin (Strep-tag II), biotinylated (human) (UniProt P13693)
Experiment: BLI
Conditions: domain or fragment

Chain of recombinant human fortilin (Strep-tag II), biotinylated (human) (P13693 whole entry): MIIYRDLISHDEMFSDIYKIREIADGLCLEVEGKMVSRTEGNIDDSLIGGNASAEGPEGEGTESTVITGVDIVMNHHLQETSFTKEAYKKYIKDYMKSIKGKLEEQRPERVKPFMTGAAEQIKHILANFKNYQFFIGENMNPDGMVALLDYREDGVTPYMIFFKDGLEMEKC
Chain of GST-IRE1α-L (aa 1-70) (O75460 19-70): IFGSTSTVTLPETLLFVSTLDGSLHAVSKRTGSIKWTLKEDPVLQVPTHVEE

Kd: 18 mM
Substance: GST-IRE1α-L (aa 1-70) (from UniProt O75460 19-70)
